Reference: PMC2199964

Target: Suc1 protein coupled to CNBr-Sepharose beads (UniProt P08463)
Assay: pull-down

Sequence of Suc1 protein coupled to CNBr-Sepharose beads (P08463 whole entry): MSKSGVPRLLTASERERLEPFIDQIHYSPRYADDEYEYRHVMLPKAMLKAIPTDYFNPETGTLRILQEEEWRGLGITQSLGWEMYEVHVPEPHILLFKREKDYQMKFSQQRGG

## Xenopus cyclin E, endogenous in interphase egg extract (natural protein)
  percent of the protein removed from the extract by Suc1 beads: > 90%
